Experimental data as given in the supplement of paper PMC10724198.
± gives the standard deviation of the averaged measurements.

Legend:
Saccharomyces cerevisiae [1] = test: protein stability index of tFT-peptide fusion (C-terminal peptide) (PSI (0-1 scale)); higher = more stable (slower turnover)
Method: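 MPS profiling in S. cerevisiae of the tFT-X12 degron library: putative degron peptides plus stable controls, 12 aa, fused to the C-terminus of a sfGFP-mCherry timer. Cells are FACS-sorted into 8 mCherry/sfGFP bins and deep-sequenced. PSI runs from 0 (unstable) to 1 (stable). Backgrounds are wild type, das1Δ and doa10Δ at 30 °C, and wild type, das1Δ, cdc34-1 and cdc53-1 at 37 °C; 2-3 technical replicates each.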

Saccharomyces cerevisiae [2] = test: as above; conditions: genetic background: wild type; temperature: 30 C
[3] = genetic background: cdc34-1, temperature: 37 C
[4] = genetic background: cdc53-1, temperature: 37 C
[5] = genetic background: das1 deletion, temperature: 30 C
[6] = genetic background: das1 deletion, temperature: 37 C
[7] = genetic background: doa10 deletion, temperature: 30 C
[8] = genetic background: wild type, temperature: 30 C
[9] = genetic background: wild type, temperature: 37 C
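Also: PSI is a weighted mean of sequencing reads over stability bins, variants kept only with over 10 reads, mCherry proximal and sfGFP distal, peptide attached via GGGS linker.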

Row | Sequence | protein stability index (Saccharomyces cerevisiae [1]; [3]) | protein stability index (Saccharomyces cerevisiae [1]; [4]) | protein stability index (Saccharomyces cerevisiae [1]; [5]) | protein stability index (Saccharomyces cerevisiae [1]; [6]) | protein stability index (Saccharomyces cerevisiae [1]; [7]) | protein stability index (Saccharomyces cerevisiae [1]; [8]) | protein stability index (Saccharomyces cerevisiae [1]; [9]) | protein stability index (Saccharomyces cerevisiae [2])
1 | VCVARICIWDFL | 0.505 ± 0.043 | 0.589 ± 0.027 | 0.446 ± 0.035 | 0.594 ± 0.014 | 0.413 ± 0.0074 | 0.438 ± 0.013 | 0.596 ± 0.0092 | 0.51 ± 0.033
2 | SWSLRLSTIFSV | 0.609 ± 0.11 | 0.664 ± 0.016 | 0.612 ± 0.025 | 0.667 ± 0.0072 | 0.189 ± 0.0053 | 0.219 ± 0.018 | 0.352 ± 0.022 | 0.367 ± 0.0041
3 | CFFVSLFFYIDC | 0.207 ± 0.055 | 0.296 ± 0.0032 | 0.215 ± 0.021 | 0.392 ± 0.0061 | 0.191 ± 0.014 | 0.203 ± 0.042 | 0.35 ± 0.0022 | 0.323 ± 0.011
4 | LFLSAFFYLLVW | 0.199 ± 0.0028 | 0.2233 ± 0.0014 | 0.245 ± 0.029 | 0.341 ± 0.0047 | 0.277 ± 0.0047 | 0.238 ± 0.014 | 0.3077 ± 0.002 | 0.284 ± 0.039
5 | VGDFFVLVGFVA | 0.493 ± 0.0097 | 0.538 ± 0.011 | 0.386 ± 0.028 | 0.547 ± 0.0057 | 0.336 ± 0.0095 | 0.382 ± 0.022 | 0.5219 ± 0.0043 | 0.492 ± 0.053
6 | LFFFSFSFLFFL | 0.291 ± 0.07 | 0.29 ± 0.0037 | 0.302 ± 0.015 | 0.411 ± 0.00085 | 0.317 ± 0.024 | 0.245 ± 0.014 | 0.3202 ± 0.0027 | 0.278 ± 0.035
7 | PFPRCRLIFFFM | 0.5172 ± 0.0045 | 0.7266 ± 0.0031 | 0.549 ± 0.025 | 0.742 ± 0.043 | 0.106 ± 0.0088 | 0.115 ± 0.017 | 0.139 ± 0.019 | 0.171 ± 0.045
8 | VRMVIFSSVYLT | 0.462 ± 0.002 | 0.509 ± 0.03 | 0.362 ± 0.033 | 0.533 ± 0.0036 | 0.256 ± 0.008 | 0.26 ± 0.027 | 0.448 ± 0.02 | 0.309 ± 0.0098
9 | PFVATRVSCFLT | 0.542 ± 0.013 | 0.704 ± 0.024 | 0.626 ± 0.087 | 0.685 ± 0.0089 | 0.339 ± 0.004 | 0.39 ± 0.05 | 0.4393 ± 0.00057 | 0.414 ± 0.015
10 | PYVHPFRCYWVL | 0.589 ± 0.032 | 0.717 ± 0.027 | 0.621 ± 0.02 | 0.7396 ± 0.0015 | 0.128 ± 0.01 | 0.138 ± 0.0077 | 0.181 ± 0.016 | 0.193 ± 0.029
11 | LFFVFCLFFIYF | 0.167 ± 0.031 | 0.102 ± 0.0085 | 0.235 ± 0.024 | 0.301 ± 0.0074 | 0.322 ± 0.0061 | 0.252 ± 0.017 | 0.264 ± 0.011 | 0.247 ± 0.004
12 | KHTGTGNAPNCD | 0.686 ± 0.061 | 0.729 ± 0.024 | 0.649 ± 0.013 | 0.719 ± 0.011 | 0.647 ± 0.025 | 0.635 ± 0.011 | 0.712 ± 0.012 | 0.754 ± 0.056
13 | YVVYLQVCWMRS | 0.072 ± 0.025 | 0.206 ± 0.076 | 0.134 ± 0.019 | 0.23 ± 0.0061 | 0.0911 ± 0.019 | 0.104 ± 0.035 | 0.186 ± 0.024 | 0.227 ± 0.0044
14 | GGRWRRRGFFFS | 0.6973 ± 0.0024 | 0.72 ± 0.01 | 0.702 ± 0.032 | 0.709 ± 0.026 | 0.627 ± 0.0095 | 0.628 ± 0.01 | 0.673 ± 0.014 | 0.518 ± 0.097
15 | RFFVRRVRVAVL | 0.786 ± 0.036 | 0.817 ± 0.019 | 0.553 ± 0.055 | 0.687 ± 0.0081 | 0.386 ± 0.025 | 0.382 ± 0.031 | 0.578 ± 0.048 | 0.406 ± 0.0052
16 | GKGVFGGLFFLV | 0.667 ± 0.029 | 0.741 ± 0.019 | 0.623 ± 0.027 | 0.755 ± 0.013 | 0.182 ± 0.0027 | 0.211 ± 0.021 | 0.465 ± 0.011 | 0.294 ± 0.0074
17 | FSCSRNVLVTVV | 0.192 ± 0.029 | 0.197 ± 0.019 | 0.229 ± 0.029 | 0.344 ± 0.0087 | 0.178 ± 0.015 | 0.209 ± 0.013 | 0.256 ± 0.0056 | 0.32 ± 0.049
18 | SIFLCRLQNLLI | 0.637 ± 0.0071 | 0.742 ± 0.023 | 0.632 ± 0.0083 | 0.734 ± 0.018 | 0.19 ± 0.017 | 0.209 ± 0.035 | 0.407 ± 0.0057 | 0.389 ± 0.077
19 | TDSSWEVSLMVG | 0.679 ± 0.051 | 0.747 ± 0.036 | 0.612 ± 0.012 | 0.733 ± 0.016 | 0.605 ± 0.023 | 0.6186 ± 0.0039 | 0.741 ± 0.026 | 0.374 ± 0.053
20 | LSASFYFVFFSN | 0.56 ± 0.013 | 0.6731 ± 0.0018 | 0.506 ± 0.023 | 0.6287 ± 0.006 | 0.155 ± 0.032 | 0.188 ± 0.0085 | 0.383 ± 0.021 | 0.292 ± 0.043
